In PMC3563353 (2012) one finds Ki data, which are given here for one molecule.

Square brackets hold non-standard residues; d marks the D form. Primed or numbered codes have the meaning given here. Side chains are listed from the residue outwards. * marks the point of attachment. IRDye800CW′ = near-infrared fluorescent dye (LiCor), attached as the maleimide; Cy5 = Cy5 near-infrared fluorescent dye; Butanoyl(4-Ph) = O=C(CCCc1ccccc1)*; Mpa = O=C(O)CCS

One assay has as its target T1, MC1RL-800.
T1 chain: {Butanoyl(4-Ph)}-H[dF]RWGK([Mpa-IRDye800CW′])-NH2
In words: competition binding with Eu-NDP-α-MSH on A375/hMC1R cells.

The next assay has as its target T2, MC1RL-Cy5.
T2 chain: {Butanoyl(4-Ph)}-H[dF]RWGK([Mpa-Cy5])-NH2
Described as above.

In general, Ki refers to a measure of affinity in units of concentration, obtained from inhibition or displacement. Low values mean a stronger hold on the target, high ones a looser hold on the target.

B1: MC1R (protein)
chain: MAVQGSQRRLLGSLNSTPTAIPQLGLAANQTGARCLEVSISDGLFLSLGLVSLVENALVVATIAKNRNLHSPMYCFICCLALSDLLVSGSNVLETAVILLLEAGALVARAAVLQQLDNVIDVITCSSMLSSLCFLGAIAVDRYISIFYALRYHSIVTLPRARRAVAAIWVASVVFSTLFIAYYDHVAVLLCLVVFFLAMLVLMAVLYVHMLARACQHAQGIARLHKRQRPVHQGFGLKGAVTLTILLGIFFLCWGPFFLHLTLIVLCPEHPTCGCIFKNFNLFLALIICNAIIDPLIYAFHSQELRRTLKEVLTCSW
Turning to B1, the Ki in the assay with MC1RL-800 stood at 0.4 nM; with MC1RL-Cy5 it was 0.3 nM.
